Measured values taken from patent US20200362049A1.
pKd: −log10 of the molar value.

Target: Recombinant, Histidine-tagged extracellular domain of human CD38 (human) (UniProt P28907)
Assay: BLI (Forte Bio), 1:1 fit

- pKd: 8.05
Substance: IB4, reference monoclonal agonistic mouse anti-human CD38 antibody
